In patent US20250382346A1, “NEURONAL PROMOTERS AND USES THEREOF” (priority 2023, published 2025):

How the values were obtained:
Type in all cases: in vivo, mice
[1] = system: striatonigral projection neurons (D1 MSNs); assay: Retrograde labeling of striatal MSNs after AAV injection into the SNr, EYFP+ cell counting; conditions: for labeled neurons, reporter expression in MSNs by promoter (FIG. 4B), mean±SEM: promoter comparison
Procedure: To improve efficiency, multiple rounds of mutations of AAV capsids were performed on a series of different serotypes. Mutations were introduced at three sites in the AAV8 capsid protein to make AAV8R, including N385D, insertion of […] (SEQ ID NO: 31) at position 588, and TS711-7121N. Two additional mutations of V183E and N41 IS were incorporated into the AAV8R12 capsid protein (FIG. 1A). The labeling pattern of the AAV8R12 capsid and G88 promoter combination was determined.
was inserted at the N587-R588 position; two other point mutations of the AAV2 Cap protein were made to develop rAAV2-retro. Similar mutations were then placed at equivalent positions for four other AAV serotypes (FIGS. 1A-1C and 25, TABLE 1), AAV1/5/6/8 (FIG. 1A). […] When administered into the SNr, 4.86±0.22 times EYFP positive MSNs in mice infected by AAV8R-hSyn-EYFP were observed as compared to those infected by rAAV2-retro-hSyn-EYFP (FIG. 2A-2C).
Baseline infectivity of rAAV2-retro was approximately 0.2±0.03×10^4 cells per striatal hemisphere (using a hSyn promoter) (TABLE 2). […] Compared to the current standard retrograde AAV, rAAV2-retro, AAV8R12 labeled 7.72±0.78-times more MSNs after nigral delivery (FIG. 2B-2C, TABLE 1). […] The AAV8R12 was generated using the AAV8R plasmid as a template.
Mice were anesthetized with sodium pentobarbital (Nembutal; 80 mg/kg, i.p.), and then placed into a stereotaxic device (KOPF). Eye cream was applied on both corneas to avoid dehydration. The skull above the targeted areas was thinned with a dental drill and carefully removed. Injections were conducted with a 10 μL syringe connected to a 33-Gauge needle (Neuros; Hamilton), using a microsyringe pump (Legato 130, KD Scientific). A total volume of 200 nL virus was injected into the SNr at a speed of 20 nL/min. The coordinates for the SNr were 3.4 mm posterior, 1.3 mm lateral, 4.8 mm ventral to the bregma.
Images were acquired using a confocal microscope (Carl Zeiss, LSM880) and an Axiolmager. Z1 microscope with apotome (Carl Zeiss). Brain structures were identified microscopically and in digital photos using a mouse brain atlas. To analyze the number of EYFP+ cells in the striatum, slices from rostral to caudal striatum were used. Every sixth section was analyzed, and numbers of EYFP+ cells were multiplied by six to acquire the approximate total number and mean number of cells per animal. Images were processed using ImageJ (NIH, USA), and final quantifications were independently performed manually by two blinded experimenters.

[2] = system: striatum (STR); assay: Promoter screening: YFP-expressing neurons after injection of AAVs into the SNr, striatum; conditions: numbers of YFP-expressing neurons per animal
From the text: (§1) To find promoters that offer high levels of expression in MSNs, gene expression databases were scanned to identify a list of eight genes that have highly enriched striatal expression compared to other parts of the basal ganglia (BG). Genes highly expressed in the striatum, but not other parts of the basal ganglia, were first selected as candidates.
(§2) Brain profiles of two epigenetic marks for enhancers and promoters, monomethylation of histone H3 lysine 4 (H3K4me1) and acetylation of histone H3 lysine 27 (H3K27ac) were checked and approximately 2 kilobase-long sequences around the transcriptional start site (TSS) that have high levels of H3K4me1 and/or H3K27ac were identified in mouse brain. Homologous sequences at equivalent positions of the human genome were then cloned onto an AAV backbone, and the activity of the homologous sequences in directing reporter expression was tested in mice after injections of AAVs into the SNr (FIG. 3A-C, TABLE 3).
(§3) G88P2 (2259 bp) was cloned with the following primers: 5′-[…] (SEQ ID NO.: 36) and 3-[…] (SEQ ID NO.: 37). To increase the payload of AAV genome, the G88P2 promoter was shorted using restriction enzymes, and two derivatives, G88P3 and G88P7, were made which were 1395-bp and 896-bp long, respectively (FIG. 3A-3C). Comparative efficiency in labeling MSNs for the two shortened promoters was observed. For mice that received viral injections into the SNr, viruses expressing EYFP driven by G88P3 and G88P7 promoters labeled 3.7±0.66×104 and 3.95±0.73×104 MSNs per mouse, respectively, compared to 1.61±0.16×104 labeled MSNs by hSyn promoter (FIG. 4B).
(§4) Region-selective promoter identification was based on the Allen Brain Atlas in situ hybridization (ISH) data (mouse.brain-map.org/). Genes highly expressed in the striatum but not in other parts of the basal ganglia were first selected as candidates. H3K4me 1 and H3K27ac are known epigenetic marks for active promoters and enhancers. Thus, we identified regions with high levels of these two chromatin modification marks in mouse brain as candidate regions based on the ENCODE annotation data on the UCSC Genome Browser (genome.ucsc.edu/). To further extend the promoters' potential application in primates, the sequences of interest were PCR-amplified from human genomic DNA. Based on the above strategies, GPR88 was selected as a candidate gene. […]
(§5) Images were acquired using a confocal microscope (Carl Zeiss, LSM880) and an Axiolmager. […] Every sixth section was analyzed, and numbers of EYFP+ cells were multiplied by six to acquire the approximate total number and mean number of cells per animal. Images were processed using ImageJ (NIH, USA), and final quantifications were independently performed manually by two blinded experimenters.

[3] = system: substantia nigra (SN); assay: Promoter screening: YFP-expressing neurons after injection of AAVs into the SNr, substantia nigra; conditions: numbers of YFP-expressing neurons per animal
From the text: as §1, §2, §3, §4, §5

[4] = system: MSNs in nucleus accumbens; assay: Retrograde labeling of accumbal MSNs after delivery into ventral pallidum or lateral hypothalamus; conditions: stereotaxic delivery into ventral pallidum or lateral hypothalamus

Molecule | labeled neurons, reporter expression in MSNs by promoter (FIG. 4B), mean±SEM ([1]; n=3 mice per group) | Activity Level STR [2] | Activity Level SN [3] | EYFP positive / labeled MSNs compared to rAAV2-retro ([1]; after nigral delivery, hSyn-EYFP) | labeled striatonigral projection neurons (FIG. 2C), mean±SEM ([1]; capsid comparison, injection into SNr of wild type mice, n=3 mice per group) | Mean (AAVs with capsid and promoter) ([1]; labeled cells after nigral injection in mice, b188 refers to it as cells per striatal hemisphere, SD and SEM in own columns) | labeling of MSNs in nucleus accumbens [4]
G88P2: 2259-bp promoter from the gene GPR88; SEQ ID NO: 44 | 36290±3705 | ++++ (>25k) | + (<5k) | – | – | – | –
R9P1: promoter from gene RGS9, 2152 bp; SEQ ID NO: 47 | – | +++ (10k-25k) | + (<5k) | – | – | – | –
G88P3: 1395-bp shortened GPR88 promoter; SEQ ID NO: 45 (nucleic acid, listed as Homo sapiens) DNA: TCTAGATGTACCACTGACATCTGCTTTAAATCTTTTGCCCATTTCATTTTTACCCTCTAACCATTTCATTACTAAAACACAAAACAAACTCCGGAAAGGAGTTTGTTGATGAGAAAACACTGAAAGTACGATTTAAATTGAGGAATGGAGATTTTCTGTGGATAATTGTCTATGTTCCACTTTACCAAAGAAAAATGAATTTCAAGTAGTGCATAAAGTAATTCTCGTTAAAAAATGTGGGAATAAAGAGATCAGTCCTGGGTACTGGGAATATATTTATCTCACAGAAAAATCTTGCCCACAAAATGCATCAGACTGAGATGAAATACTCTAGGGTATATTAAATTTTATTCTAATATTGAAGGGAGGGAAAAAAAGGACGGAAAGAAAAATGAAACAGGATGAAAAATAAGGTGATTGGGAGAGAGAAAAGACAGAGAAACTTGTTAACGACAGGACTTTCTGAGCAAGATATTTTTCTTCCTTTTACAAGTTGGAAGCTATTGAATAATTCATGCCAAGCGTGGAAAGGCTGTCTTTTCCCTGGATGATGTATAACTAAGCAGGAGAGAGCTTCGAGTGGGTTCACCACATCAGCCACCACTCCTGCTTCTGAGCACAGGGTGCTCTCCTCTTGAGCTCAGCTTCTGCTTTTGCAGCCAAGCATTCTTGCTGCTGCTGCCTGCCTGCCCACCCGCCTGGGCTTGCAGCCCGCCACTTTACTTTCTCCAGCCCTGATACCAGCTGAGAAGTCTCCCTGCAGCTGCTAGTTCCTGCCCAGGACCATGTGTGTGGATGCTGCTTGGGAGAAGCGGGCACTTGCTCCTGGCACTGATCCCAGCTGAGTTTCTCCTGTTGATTTCTGGACCACTGATGCTGTTGCTGAGGAGGTATTTCCCGGCATCCCTCCCCCTGAGACACCGGCTAAGGACCAGCCTAAACGCAAGGTAACCTTCACCTCTTTCCCATGGGATTTTCCCCAGCTGGGATATCTCTGCTTTCTCCTGGAACTAGGTCCTCCAGCTGGCAACATATCTCTCTCTCTCTCTCTCTCTCTCTCTCTCTCTCTCTGTGTGTGTGTGTGTGTGTTGGGGGAGAAGAGGAGACTGTTTTAGGTATTGCTCTGTCCTAGGGCTTCCCCGATACCTGCTGAATCCAATGCAAAGTGGCCTTTCCCCTGGCTCTGGAGACATTTCCGAGGCAGGCACCTGTCATTTGCCACCCCCGTCCTCCTCCTCGAGCTCCCTTTCTCCCCCTCCCCCAGCCCATTATTCTGCTTCAGCCTTTTGTGTCAGTGGCAGAGGGCTGAAGGGATGTCTTTGCCCTTCTGGCAGGCAGGACAGTGTCAGGATGGACCGCGCTGCCAGAAGCCGACGCTAGCGAGGGAGGTGTGAA | 37026±6646 | ++++ (>25k) | + (<5k) | – | – | – | –
AAV8R: AAV8 capsid with N385D, insertion of SEQ ID NO: 31 at position 588 and TS to IN mutation; Cap SEQ ID NO: 1 (protein) MAADGYLPDWLEDNLSEGIREWWALKPGAPKPKANQQKQDDGRGLVLPGYKYLGPFNGLDKGEPVNAADAAALEHDKAYDQQLQAGDNPYLRYNHADAEFQERLQEDTSFGGNLGRAVFQAKKRVLEPLGLVEEGAKTAPGKKRPVEPSPQRSPDSSTGIGKKGQQPARKRLNFGQTGDSESVPDPQPLGEPPAAPSGVGPNTMAAGGGAPMADNNEGADGVGSSSGNWHCDSTWLGDRVITTSTRTWALPTYNNHLYKQISNGTSGGATNDNTYFGYSTPWGYFDFNRFHCHFSPRDWQRLINNNWGFRPKRLSFKLFNIQVKEVTQNEGTKTIANNLTSTIQVFTDSEYQLPYVLGSAHQGCLPPFPADVFMIPQYGYLTLNDGSQAVGRSSFYCLEYFPSQMLRTGNNFQFTYTFEDVPFHSSYAHSQSLDRLMNPLIDQYLYYLSRTQTTGGTANTQTLGFSQGGPNTMANQAKNWLPGPCYRQQRVSTTTGQNNNSNFAWTAGTKYHLNGRNSLANPGIAMATHKDDEERFFPSNGILIFGKQNAARDNADYSDVMLTSEEEIKTTNPVATEEYGIVADNLQRGNLADQDYTKTARQAATADVNSQGALPGMVWQNRDVYLQGPIWAKIPHTDGNFHPSPLMGGFGLKHPPPQILIKNTPVPADPPTTFNQSKLNSFITQYSTGQVSVEIEWELQKENSKRWNPEIQYTSNYYKSINVDFAVNTEGVYSEPRPIGTRYLTRNL | – | – | – | 4.86±0.22 times | 10092±463.9 | 10092 | robust labeling of MSNs
G88P7: 896-bp shortened GPR88 promoter; SEQ ID NO: 46 (nucleic acid, listed as Homo sapiens) DNA: ATGCCAAGCGTGGAAAGGCTGTCTTTTCCCTGGATGATGTATAACTAAGCAGGAGAGAGCTTCGAGTGGGTTCACCACATCAGCCACCACTCCTGCTTCTGAGCACAGGGTGCTCTCCTCTTGAGCTCAGCTTCTGCTTTTGCAGCCAAGCATTCTTGCTGCTGCTGCCTGCCTGCCCACCCGCCTGGGCTTGCAGCCCGCCACTTTACTTTCTCCAGCCCTGATACCAGCTGAGAAGTCTCCCTGCAGCTGCTAGTTCCTGCCCAGGACCATGTGTGTGGATGCTGCTTGGGAGAAGCGGGCACTTGCTCCTGGCACTGATCCCAGCTGAGTTTCTCCTGTTGATTTCTGGACCACTGATGCTGTTGCTGAGGAGGTATTTCCCGGCATCCCTCCCCCTGAGACACCGGCTAAGGACCAGCCTAAACGCAAGGTAACCTTCACCTCTTTCCCATGGGATTTTCCCCAGCTGGGATATCTCTGCTTTCTCCTGGAACTAGGTCCTCCAGCTGGCAACATATCTCTCTCTCTCTCTCTCTCTCTCTCTCTCTCTCTCTCTCTGTGTGTGTGTGTGTGTGTTGGGGGAGAAGAGGAGACTGTTTTAGGTATTGCTCTGTCCTAGGGCTTCCCCGATACCTGCTGAATCCAATGCAAAGTGGCCTTTCCCCTGGCTCTGGAGACATTTCCGAGGCAGGCACCTGTCATCTGCCACCCCCGTCCTCCTCCTCGAGCTCCCTTTCTCCCCCTCCCCCAGCCCATTATTCTGCTTCAGCCTTTTGTGTCAGTGGCAGAGGGCTGAAGGGATGTCTTTGCCCTTCTGGCAGGCAGGACAGTGTCAGGATGGACCGCGCTGCCAGAAGCCGACGCTAGCGAGGGAGGTGTGAAGAGTTGGCCAG | 39460±7281 | ++++ (>25k) | + (<5k) | – | – | – | –
